According to patent US20210030857A1 (NGM BIOPHARMACEUTICALS, published 2021):

Assays:
[1] = target: T1, cynomolgus beta klotho expressed on cells (cynomolgus monkey (Macaca fascicularis), UniProt Q86Z14 1-1044 (human entry)); experiment: FACS on transfected Expi293 cells, antibody 1 µg/ml, labelled anti-human Fc
T1 construct: also called Cynomolgus KLB
T1 chain: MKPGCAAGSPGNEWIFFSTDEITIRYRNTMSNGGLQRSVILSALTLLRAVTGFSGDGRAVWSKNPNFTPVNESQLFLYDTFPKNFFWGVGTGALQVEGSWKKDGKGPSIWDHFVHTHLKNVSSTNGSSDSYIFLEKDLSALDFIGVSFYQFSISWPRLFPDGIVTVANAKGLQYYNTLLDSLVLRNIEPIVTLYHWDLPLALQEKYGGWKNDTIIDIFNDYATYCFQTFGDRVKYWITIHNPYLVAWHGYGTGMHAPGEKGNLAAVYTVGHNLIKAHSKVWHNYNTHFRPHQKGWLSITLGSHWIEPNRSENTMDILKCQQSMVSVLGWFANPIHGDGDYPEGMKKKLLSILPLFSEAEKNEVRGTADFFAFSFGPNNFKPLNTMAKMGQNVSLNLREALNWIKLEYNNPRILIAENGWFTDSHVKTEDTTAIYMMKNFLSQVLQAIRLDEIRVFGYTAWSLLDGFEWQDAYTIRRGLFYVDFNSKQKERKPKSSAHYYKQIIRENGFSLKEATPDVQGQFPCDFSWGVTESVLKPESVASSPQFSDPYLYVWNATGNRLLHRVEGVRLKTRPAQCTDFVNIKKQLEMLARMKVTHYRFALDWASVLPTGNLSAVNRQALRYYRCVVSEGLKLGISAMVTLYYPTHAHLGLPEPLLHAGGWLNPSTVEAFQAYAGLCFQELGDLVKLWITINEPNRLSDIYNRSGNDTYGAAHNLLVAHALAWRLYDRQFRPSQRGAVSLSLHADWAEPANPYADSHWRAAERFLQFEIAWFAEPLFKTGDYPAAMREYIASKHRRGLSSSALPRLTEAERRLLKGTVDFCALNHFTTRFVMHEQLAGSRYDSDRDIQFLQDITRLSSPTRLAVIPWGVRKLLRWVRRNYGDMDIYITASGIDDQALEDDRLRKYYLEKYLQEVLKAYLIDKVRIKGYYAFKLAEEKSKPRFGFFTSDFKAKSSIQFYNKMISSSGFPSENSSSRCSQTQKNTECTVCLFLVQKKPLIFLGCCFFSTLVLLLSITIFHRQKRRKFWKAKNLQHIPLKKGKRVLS
Method: (§1) Studies were performed in order to localize the binding site on human KLB of anti-beta klotho antibodies in the 5H23 epitope bin, including 5H23 as described in Example 3, with sequences shown in Tables 1-10 and FIGS. 1-3, and human anti-beta klotho antibodies in the 5H23 epitope bin, such as humanized 5H23 antibodies (e.g., VH SEQ ID NO: 271 and VL SEQ ID NO: 276). For example, FACS-based binding assays for domain mapping were performed on Expi293 cells (Life Technologies, A14635) that were transiently transfected with plasmids encoding variants of KLB: human, mouse, cynomolgus, a chimeric version in which the KL1 domain sequence of mouse KLB (M1-F506) replaces the KL1 domain of human KLB (M1-F508) to create mouse-human KLB (SEQ ID NO: 376), and a second chimera in which the human KL1 sequence (M1-F508) replaces the KL1 domain of mouse KLB (M1-F506) to create human-mouse KLB (SEQ ID NO: 374). Additionally, the expression vector pYD7 harboring no KLB sequence was transfected as a negative control.
(§2) In some studies, binding of a purified sample of a humanized 5H23 antibody (e.g., VH SEQ ID NO: 271 and VL SEQ ID NO: 276) to KLB variants was determined by FACS analysis. […] After washing with PBS/1% BSA/0.1% azide, transfected cells were then co-incubated with labeled anti-human Fc (Jackson lmmunoresearch) for 30 minutes at 4° C. After washing with PBS/1% BSA/0.1% azide, cells were acquired on flow cytometer (FACS Calibur) and analyzed by cytometric software (FlowJo). To display the resulting data, graphs plotting the number of cells as a function of fluorescence intensity were generated, and the median fluorescence intensity (MFI) was determined for each sample as shown in Table 30.

[2] = target: T2, human beta klotho expressed on cells (human, UniProt Q86Z14 1-1044); experiment: as above
T2 construct: also called HuKLB overexpressing cells; Human KLB
T2 sequence: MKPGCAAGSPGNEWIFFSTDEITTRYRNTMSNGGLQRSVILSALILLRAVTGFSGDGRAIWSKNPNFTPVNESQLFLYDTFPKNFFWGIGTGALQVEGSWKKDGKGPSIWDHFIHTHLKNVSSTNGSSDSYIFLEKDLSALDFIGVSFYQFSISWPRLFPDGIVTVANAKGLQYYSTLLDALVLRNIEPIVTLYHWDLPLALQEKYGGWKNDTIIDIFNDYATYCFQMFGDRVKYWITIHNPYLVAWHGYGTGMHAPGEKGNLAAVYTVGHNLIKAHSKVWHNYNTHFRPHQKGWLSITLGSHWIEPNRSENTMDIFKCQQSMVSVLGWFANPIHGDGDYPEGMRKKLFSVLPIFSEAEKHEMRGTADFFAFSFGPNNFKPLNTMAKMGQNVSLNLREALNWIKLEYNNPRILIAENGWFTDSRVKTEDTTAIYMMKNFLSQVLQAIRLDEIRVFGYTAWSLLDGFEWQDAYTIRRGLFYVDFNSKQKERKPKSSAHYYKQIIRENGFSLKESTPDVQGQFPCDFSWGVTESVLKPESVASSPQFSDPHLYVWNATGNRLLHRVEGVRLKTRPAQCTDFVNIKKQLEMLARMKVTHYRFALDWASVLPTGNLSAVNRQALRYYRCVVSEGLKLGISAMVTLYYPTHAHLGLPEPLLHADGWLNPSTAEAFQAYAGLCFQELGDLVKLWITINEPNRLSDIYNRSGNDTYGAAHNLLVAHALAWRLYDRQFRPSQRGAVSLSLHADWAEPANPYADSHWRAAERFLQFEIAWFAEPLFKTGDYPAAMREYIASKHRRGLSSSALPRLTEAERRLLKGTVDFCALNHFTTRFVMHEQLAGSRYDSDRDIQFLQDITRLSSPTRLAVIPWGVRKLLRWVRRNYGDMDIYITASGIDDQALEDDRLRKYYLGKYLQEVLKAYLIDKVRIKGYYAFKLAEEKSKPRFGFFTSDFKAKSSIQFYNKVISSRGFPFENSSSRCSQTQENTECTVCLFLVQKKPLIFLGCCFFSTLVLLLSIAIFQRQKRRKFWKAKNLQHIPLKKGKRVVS
Method: as §1, §2

B1: humanized 5H23 antibody (VH SEQ ID NO: 271 and VL SEQ ID NO: 276) (antibody, V domains shown)
VH: QVQLQQSGAEVKKPGASVKVSCKASGYTFTSYDINWVRQAPGQGLEWIGWIYPGDGSTKYNEKFKGKATITRDTSASTAYMELSSLRSEDTAVYFCARSDYYGSRSFAYWGQGTLVTVSS
VL: DIVMTQSPDSLAVSLGERATINCRASKSVSTSGYVYMHWYQQKPGQPPKLLIYLASYLESGVPDRFSGSGSGTDFTLTISSVQAEDVAVYYCQHSRDLTFPFGGGTKLEIK
notes: also called h5H23; h5H23 (Prep 1)
- Mean Fluorescence intensity [1]: 1910 MFI
- Mean Fluorescence intensity [2]: 865 MFI

B2: negative control antibody, anti-keyhole limpet hemocyanin (KLH) antibody (antibody, human IgG1, kappa, V domains shown)
VH: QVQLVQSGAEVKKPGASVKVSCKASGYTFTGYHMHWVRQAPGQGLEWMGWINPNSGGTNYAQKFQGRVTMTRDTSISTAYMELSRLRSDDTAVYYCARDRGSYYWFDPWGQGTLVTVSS
VL: DIQMTQSPSSLSASVGDRVTITCRASQGIRNDLGWYQQKPGKAPKRLIYAASSLQSGVPSRFSGSGSGTEFTLTISSLQPEDFATYYCLQHNSYPLTFGGGTKVEIKR
notes: also called Neg; Control; anti-KLH antibody
- Mean Fluorescence intensity [1]: 9.26 MFI
- Mean Fluorescence intensity [2]: 6.2 MFI
